Results reported in patent publication US20240336665A1 (ACROIMMUNE GUANGZHOU BIOTECH, published 2024).

T1: Siglec10-mIgG2aFc fusion protein (AcroBiosystems, SI0-H525b, HEK293 cell derived) (human, UniProt Q96LC7 17-546)
T1 construct: Bought reagent; also called recombinant human Siglec-10-mIgGFc protein; not shown: mouse IgG2a Fc
T1 sequence (looked up): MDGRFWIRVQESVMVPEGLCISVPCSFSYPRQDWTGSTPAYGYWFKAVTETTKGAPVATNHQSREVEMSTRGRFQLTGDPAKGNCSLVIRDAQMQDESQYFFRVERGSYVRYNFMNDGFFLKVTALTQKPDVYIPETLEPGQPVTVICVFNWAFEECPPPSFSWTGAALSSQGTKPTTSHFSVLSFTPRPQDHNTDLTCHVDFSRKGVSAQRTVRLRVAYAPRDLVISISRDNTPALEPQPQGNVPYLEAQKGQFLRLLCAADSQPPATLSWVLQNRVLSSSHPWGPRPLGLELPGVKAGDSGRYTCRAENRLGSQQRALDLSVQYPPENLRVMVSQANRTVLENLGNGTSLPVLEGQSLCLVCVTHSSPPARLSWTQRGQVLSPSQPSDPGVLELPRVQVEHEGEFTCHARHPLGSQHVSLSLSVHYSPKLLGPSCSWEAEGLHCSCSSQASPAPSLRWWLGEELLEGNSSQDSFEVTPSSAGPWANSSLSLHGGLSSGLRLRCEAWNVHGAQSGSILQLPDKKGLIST

B1: HMGB1-His tag protein (AcroBiosystems, HM1-H5220, HEK293 cell derived) (other, human, UniProt P09429 1-215, looked up)
chain: MGKGDPKKPRGKMSSYAFFVQTCREEHKKKHPDASVNFSEFSKKCSERWKTMSAKEKGKFEDMAKADKARYEREMKTYIPPKGETKKKFKDPNAPKRPPSAFFLFCSEYRPKIKGEHPGLSIGDVAKKLGEMWNNTAADDKQPYEKKAAKLKEKYEKDIAAYRAKGKPDAAKKGVVKAEKSKKKKEEEEDEEDEEDEEEEEDEEDEDEEEDDDDE
notes: Bought reagent; also called recombinant human HMGB1-His tag protein; High Mobility Group Box 1; not shown: His tag
B2: CD24Fc fusion protein (Fc fusion, UniProt P25063 27-56, looked up)
chain: SETTTGTSSNSSQSTSNSGLAPNPTNATTK
notes: Comparator protein; also called CD24Fc protein; not shown: Fc detected by anti-human IgG-Fc antibody

How the values were obtained:
[1] = biological target: T2, human IgG1-Fc control protein (human, UniProt P01857-1 100-330 = IgG part, limits assumed); test: protein A bead pull-down, SDS-PAGE with Coomassie staining
T2 construct: domain: Fc; Control in the pull-down assay; also called human IgG-Fc control
Protocol: FIGS. 8A-8B illustrate the association of AI-072 protein with human HMGB1 in a pull-down assay. Recombinant HMGB1-His protein sample was incubated with AI-072, human IgG-Fc control, or none for 5 min, then add protein A-conjugated beads to the mixture to capture (or pull-down) the bound proteins. The captured proteins were then separated in an SDS-PAGE gel and visualized by Coomassie Brilliant Blue dye staining. […] As indicated on the top of each gel, lane 1 represents the sample containing HMGB1 only, lane 2 represents the sample containing HMGB1 and human IgG-Fc, and lane 3 represents the sample containing HMGB1 and AI-072, lane M is the protein molecule weight marker sample.
In-brief, 8 μL of 500 μg/mL HMGB1-His protein was mixed with either about 3 μg AI-072 or human IgG1-Fc control protein or none, and set at room temp for 5 min. The mixtures were then incubated with protein A-conjugated beads to capture (or pull-down) the bound proteins. The captured proteins were separated in an SDS-PAGE gel and visualized by Coomassie Brilliant Blue dye staining.

[2] = biological target: T1, Siglec10-mIgG2aFc fusion protein …; test: ELISA, Siglec10-mIgG2aFc coated, detection by anti-human IgG-Fc-HRP
Protocol: In-brief, 96-well plates were coated (100 μL per well) with 0.2 μg/mL of Siglec10-mIgG2aFc fusion protein (AcroBiosystems, SI0-H525b, HEK293 cell derived) at 4° C. overnight. After blocking with SuperBlock (Thermo, 37515) at room temperature for 1 hour, 100 μL of 2-fold serial dilutions of either AI-072 or CD24Fc (all starting at 1.5 mg/ml) were added. The bound AI-072 or CD24Fc protein was then detected by HRP-labeled goat anti-human IgG-Fc antibody (1:5000, Invitrogen, A18829) followed by the addition of Tetramethylbenzidin (TMB) substrate. After a color development at room temp for 15 min, 2N HCl stop solution was added into the plate. The OD values at a wavelength of 450 nm (OD 450 nm) in each well were then measured.

[3] = biological target: B1; test: ELISA, HMGB1-His coated, detection by anti-human IgG-Fc-HRP
Protocol: In-brief, 96-well plates were coated (100 μL per well) with 0.1 μg/mL HMGB1-His tag protein (AcroBiosystems, HM1-H5220, HEK293 cell derived) at 4° C. overnight. After blocking with SuperBlock (Thermo, 37515) at room temperature for 1 hour, 100 μL of 2-fold serial dilutions of AI-72 or CD24Fc (all starting at 1.5 mg/ml, and diluted in PBST-1% BSA solution containing 1 mM MgCl2 and 1 mM CaCl2) were added. The bound AI-072 or CD24Fc protein was then detected by adding HRP-labeled goat anti-human IgG-Fc antibody (1:1000, Invitrogen, A18829), followed by the addition of tetramethylbenzidin (TMB) substrate. After a color development at room temp for 15 mins, 2N HCl stop solution was then added into the plate. The OD values at a wavelength of 450 nm in each well were then measured.

Row | binding result [1] | EC50 [2] | EC50 [3] | Binder
1 | no binding (tested: about 3 ug) | – | – | B1
2 | – | 2.85 µM | 51 µM | B2
